This is an account of results in US20140294898A1 (published 2014).

The labels stand for the following.
B1: Compound No. 71 (peptide)
peptide: FFXGDVFYGWYLCG
HELM: PEPTIDE1{[O=C(C[*:3])[*:2]].F.[meF].[CCCC[C@@H](C(=O)[*:2])N(C)[*:1]].[Sar].D.V.[meF].Y.[Sar].W.Y.L.C.G.[am]}$PEPTIDE1,PEPTIDE1,1:R3-14:R3$$$V2.0
SMILES: CCCC[C@H]1C(=O)N(C)CC(=O)N[C@@H](CC(=O)O)C(=O)N[C@@H](C(C)C)C(=O)N(C)[C@@H](Cc2ccccc2)C(=O)N[C@@H](Cc2ccc(O)cc2)C(=O)N(C)CC(=O)N[C@@H](Cc2c[nH]c3ccccc23)C(=O)N[C@@H](Cc2ccc(O)cc2)C(=O)N[C@@H](CC(C)C)C(=O)N[C@H](C(=O)NCC(N)=O)CSCC(=O)N[C@@H](Cc2ccccc2)C(=O)N(C)[C@@H](Cc2ccccc2)C(=O)N1C
B2: Compound No. 99 (peptide)
peptide: {CH2CO}-FLIVIRDRVFRCG-NH2
modifications: thioether N-12
B3: Compound No. 2 (peptide)
peptide: {CH2CO}-F[NMeA]NPHHSWRW[NMeNle][NMeNle]LCG-NH2
modifications: thioether N-14
SMILES: CCCC[C@H]1C(=O)N(C)[C@@H](CCCC)C(=O)N[C@@H](CC(C)C)C(=O)N[C@H](C(=O)NCC(N)=O)CSCC(=O)N[C@@H](Cc2ccccc2)C(=O)N(C)[C@@H](C)C(=O)N[C@@H](CC(N)=O)C(=O)N2CCC[C@H]2C(=O)N[C@@H](Cc2c[nH]cn2)C(=O)N[C@@H](Cc2c[nH]cn2)C(=O)N[C@@H](CO)C(=O)N[C@@H](Cc2c[nH]c3ccccc23)C(=O)N[C@@H](CCCNC(=N)N)C(=O)N[C@@H](Cc2c[nH]c3ccccc23)C(=O)N1C

Positions of bridges follow the written chain, without caps; N, C: chain ends. Non-standard residues stand in square brackets, D forms with d. NMeNle = CCCC[C@H](NC)C(=O)O; NMeA = CN[C@@H](C)C(=O)O

T1 sequence (Q9NZQ7 other isoform, or with tags, fused parts or gaps): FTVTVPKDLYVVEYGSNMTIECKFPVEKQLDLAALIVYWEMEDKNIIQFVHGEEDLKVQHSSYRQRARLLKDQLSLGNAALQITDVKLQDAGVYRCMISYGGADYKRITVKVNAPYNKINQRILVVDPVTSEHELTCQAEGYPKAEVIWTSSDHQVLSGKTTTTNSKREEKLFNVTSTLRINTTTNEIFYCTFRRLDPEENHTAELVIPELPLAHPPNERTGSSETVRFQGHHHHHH

The first assay has as its target T1, hPDL1(19-239)-TVMV-His (recombinant human PD-L1-TVMV-His) (UniProt Q9NZQ7 19-239). Put plainly: HTRF PD-1/PD-L1 binding inhibition.
What is called IC50 is the concentration needed to halve the response being measured. Take B1: the IC50 stood at 1 nM.
Still for that read-out and setting: for B2 the value was 90 nM; for B3, 14 nM.

The target in the next assay is T1, hPDL1(19-239)-TVMV-His (recombinant …). Put plainly: HTRF competition with biotinylated Compound No. 71. Background: In TR-FRET formats the signal depends on donor and acceptor labels being close together.
On to B1, for which the IC50 worked out at 83 nM.
Same read-out and setting: with B2 the figure was 4310 nM; with B3, 584 nM.

Another assay deals with human PD-L1 on cells (human, UniProt Q9NZQ7 19-290). Briefly: cell binding assay, blocking of PD-1-Ig (PE) to LK35.2-hPD-L1 cells.
Chain of human PD-L1 on cells (Q9NZQ7 19-290): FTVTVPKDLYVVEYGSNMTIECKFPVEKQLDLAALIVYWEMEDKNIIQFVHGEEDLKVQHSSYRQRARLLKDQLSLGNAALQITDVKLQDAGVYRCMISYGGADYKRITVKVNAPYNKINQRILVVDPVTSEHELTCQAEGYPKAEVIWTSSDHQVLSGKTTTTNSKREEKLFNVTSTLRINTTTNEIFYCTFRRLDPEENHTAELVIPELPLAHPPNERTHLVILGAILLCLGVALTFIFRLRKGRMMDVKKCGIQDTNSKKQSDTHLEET
For B1, the IC50 came to 1 nM.
Same read-out and setting: for B2 the value was 133 nM; for B3, 40 nM.
